This data set deals with the molecule itself. Kind of data set: dynamic light scattering; thermally denatured RIα(92–381), soluble aggregates; 10 mM K-phosphate buffer, 50 mM KCl, pH 7.5; measured at 22 and 60°C.

B1: human RIα(92–381), regulatory subunit RIα of cAMP-dependent protein kinase (PKA), truncated form with the tandem CNB domains A and B (domain or fragment, UniProt P10644 92-381, looked up)
chain: KGRRRRGAISAEVYTEEDAASYVRKVIPKDYKTMAALAKAIEKNVLFSHLDDNERSDIFDAMFSVSFIAGETVIQQGDEGDNFYVIDQGETDVYVNNEWATSVGEGGSFGELALIYGTPRAATVKAKTNVKLWGIDRDSYRRILMGSTLRKRKMYEEFLSKVSILESLDKWERLTVADALEPVQFEDGQKIVVQGEPGDEFFIILEGSAAVLQRRSENEEFVEVGRLGPSDYFGEIALLMNRPRAATVVARGPLKCVKLDRPRFERVLGPCSDILKRNIQQYNSFVSLSV
notes: cAMP-dependent protein kinase type I-alpha regulatory subunit (RIα), human, residues 92-381, numbering according to Swiss-Prot P10644; lacks the N-terminal docking/dimerization domain; In the aggregation experiments the protein was thermally denatured; the self-association is that of the partly unfolded, non-native state; also called apo-RIα(92–381); wt RIα(92–381); source: E. coli BL21 (DE3) …
For B1, the binding result is listed as “binds”.

For the origin of these results see paper PMC3048872, “The Regulatory Subunit of PKA-I Remains Partially Structured and Undergoes β-Aggregation upon Thermal Denaturation” (PLoS ONE, 2011).
